# Measured values published in the DeepSol protein solubility set.
# Assay: soluble on expression in E. coli; label from the status in PepcDB or PDB records
row,Sequence,soluble on expression in E. coli
1,SKSKEPLLNGFFWNRTSIYYNCQVIIEVTEMLHNASLLIDDIEDSSKLRRGFPVAHSIYGIPSVINSANYVYFLGLEKVLMLEHPEAVRVFTRQLLELHRGQGLDIHWRDTYTCPSEAEYRAMVLQKTGGLFGLAVGLMQLFSDWKRDLKPLLDTLGLYFQIRDDYANLNSKQYSANKSFCEDLTEGKFSFPTIHAIWSHPESTQVQNILRRRTENLDIKRYCVDYLEKVGSFAYTRQTLLDLEVEAYRLIKELGGNPELEALVEHLSRMYKEPEGGATVSQSK,soluble
2,MTTAGYYAAVDWGTSSFRLWIIGEDGAVLAERRSAEGMTTAAKTGFHTILDGHLAAVSAPAHLPIIICGMAGARQGWKEAGYIETPAALAEIAGRATAIPDVDRDIRILPGLAQRDRRHPDVMRGEETQLLGAAAHLGAGSHLVCMPGTHSKWVRLADDRVEGFSTFMTGELFDTIARHTILSHAVAEADTFAAGSAAFTDAVSRTRENPALATNLLFSVRAGQLLHGTAAADARAQLSGTLIGLEIAGALAGSGSVDGVCLVGSGGLGTLYRTALESQGLNVRAVDADEAVRAGLSAAARAIWPL,not soluble
3,PRLLCTATKQKNSGQNLEEDMGQSEQKADPPATEKTLLEEKVKLEEQLKETVEKYKRALADTENLRQRSQKLVEEAKLYGIQAFCKDLLEVADVLEKATQCVPKEEIKDDNPHLKNLYEGLVMTEVQIQKVFTKHGLLKLNPVGAKFDPYEHEALFHTPVEGKEPGTVALVSKVGYKLHGRTLRPALVGVVKEA,not soluble
4,MGLKPCDYPDIKHGGLYHENMRRPYFPVAVGKYYSYYCDEHFETPSGSYWDHIHCTQDGWSPAVPCLRKCYFPYLENGYNQNHGRKFVQGKSIDVACHPGYALPKAQTTVTCMENGWSPTPRCIRVKTCSKSSIDIENGFISESQYTYALKEKAKYQCKLGYVTADGETSGSITCGKDGWSAQPTCI,soluble
5,MLLNEKDFKNEGVKIAALIMAESARTAPKSKGEDTIEIVYVDGEEMEKIAAKMEEMAEGGDKDFIRDAESVRKSQAILLIGAKGDRTVGVNCQACGFESCSEFKKADRKGENFVGPNCAFRMIDLGIALGSAVKVSAMLGIDTRIMYRIGIAAKKLGMIDADVVMGVPLSALGKSPYFDRAPKK,not soluble
6,MNVTSVTSEDGVKEFEKIVVEPEDIEYVEIPADAKNVDLTRHRIKEIGDYSWLTHVEHFSFRWNLIKKIENLDCLTTLTHLEFYDNQITKVENLDSLVNLESLDLSFNRITKIENLEKLTKLKTLFFVHNKITKIEGLDTLTELEYLELGDNRIAKIENLDNNLKLDRLFLGANQIRLIENVDHLKKLTVLSLPANAITVVDNISGLHNLKEIYLAQNGIKYVCGIDEHLPLEILDFNQNRLEKVENIHQLKTLTDFWARGNKLDNWSIMDELVELPQLNSVYLDFNPIASVDTYRGKVIHLLQQITRLDGTQCREHSMLRPPKEEKNETELSRVVLDNPSDDHPTESV,not soluble
7,MGSDKIHHHHHHMKQFWNWKNYQIAWQVEETSNDSGIAIVLIHGFGACKEHWRFNQKTISSIAPCYALDLIGFGDSSKPNSQIPYEKKTYQNFNYCFDNWSQLVYDFCNEIVKKPVLLIGNSIGGVIALNTSKKLSQKALGVILIDCAQRTMDDKRLAEQSLLMRFLRPVIKTFVRQRLLSSNIFNIAAQPKFIAKILKVAYPSRNNVDEELIDTLFKPTQSKGAPEAFRGFINLFDDYLAPNLLKEMNTSVHLIWGEKDPWEPVKEAQKWFKTFECIKSLDVISDAGHCPHDEMPEKVNPILIKIIQEAI,not soluble
8,MGSDKIHHHHHHMIELIATAESVEQAVELLATGVDTLYIGEETFGLRLPVSFTRDEQREIVKRAHEMGKQVLVAVNGIMHPEKMKLVPEYLTFLKEINVDKITLGDPGIVFIMQRDGLEIPYVYDGETLVTSSRQINFWSKRGAIGAVLAREVPFEEMVAMEENLAVPAEILVYGATCIHQSKRPLIQNYYNYTKNDKGVTKDEGLFISEPKKPETHYSIYEDSHGTHIFANNDVNLMNELTNLYDHHYRTWKLDGLYTPGENFVAIARLFAEAKAALEAGTWSEDQAAHATAEIEKLHPTGRGLDNGFFDLSADAIK,not soluble
9,MRYAIMVTGPAYGTQQASSALQFAHALLNEGHELASVFFYREGVYNANLLTSPASDEYDLVRVWQKLNTQHGVALNICVAAALRRGIIDETEAGRLELPSANLQPGFTLSGLGALAEASLTCDRVVQF,soluble
10,MSLVTSVSKLMFLGGSNKLICHNKETFVKILENPNQPLITVSNHRSNIDDPLMWCILKFREFWRYKDRNRYTLAAHNICFTKQFHTTMFSLGRCVPCVRGEGVYQKGMDFCVDMLNDNKWVHIFPEGKVCTLESEPLRFKWGIGRLVMDAKTDPVILPVWCKEMEKVWPTQPPYYPKFGNTVTVHIGEPFFLSDLKKTVLSKSLTTEQMRKIITDEVQTRMYQLGEKVGDLPKGSSLEILRKNPPIEY,not soluble
11,MSLKLVAIAGSIGEQSYNRMLLQYIAKHFENLVDIELLNIDDVPVFNEDEDLSDNIKIQKIYQKIYGADGVILATPEHNHTVTAAIKNVIEWLSFKLHPFDGKPVWIVGASYFNQGSSRAQLHLKQILEAPGVNAIVMPGNEFLLRNAKEAFDAEGQLKDAGTVQFLEMVIQKFIKFVKVIDMLDAPDPKSYQDEDLESKGKVNTTIEGVDMHDEHWVEKAAQKVHAVDGSTYVKLDRGILTVDQLNYFLKTMPVELTYADDNNQFIYYNKNQPADKMLAPRNPGQAGDPLADVHPGRAVDRVKQVIHALRTGETDLVSMPVPGNGPDRHVMHYYKAMRDENGRYRGVNEWVTDIMPIIKYYLASTGEGHHHHHH,soluble
12,MKIDYVSDLHINHWIPWNVNQIKWEKRTREIVNRLISNGNGEVLVIAGDFTEWNQQTLWVLDEAAKQYEKVYFTYGNHDLYLLSKSQKRKYSDSLGRLNDLIQKAADMKNVTPLIKTTETYKGKVFAGDVMWYLPKGIEGWDFFKGVSNDSNYIWLNGYNKVDGVRAMWKESMDWYETLENTQVDVFVSHVPPVHNPYSPFEPNTCYMVDVPFINAKHWVCGHDHLQAEFDKDGTSFHMNCIGYPYDYDNYPSVNVIPGEEVDSYKTFELKTFEIMAGDPLEHHHHHH,not soluble
13,GFRVFIFIILHFVLTNCIREDMSGCPRDDGGLALKFSYDTNADSRLSTAQGVDRLAVFIFDEKGLFISQVNDSMTSINDDYVMELPYKQGSYQFVAWGGYDKSTYQTSECVPRKTYIDDFFLSVKRQEDNQVTNQPKLLYHGMHDIVELNSKEKTIVLINLKQMTNHIRVIAHNLNQDRSDNIYIEDNNGKYGYDSQFSDDDRITYIPIYEASSEQSNPLIADFNVMRLEKDREPWLRIADKTGTIRYDENLIGKLIGGNPNIDFEHNHDFTIEISFDNYIPVIIKINGWEIVNEEI,not soluble
14,MSLKKAKLIFKDNTPFSLDFDDFYFNSKDGLNESKFVYTHSFEWKNQENFIIAESGFGIGLNFFLTLKRLLETTPSKRPKKLFYISVEAFYIEKEQLREIYQKLEFYEEFKELLEQFLKFYPKAKEGIYRFYFEDCFLDLVFEDIAVLKELDFKADVWYLDGFSPNKNLQMFDENLIFEVARLSKKNTQICTFSSASFLQKNLKKYGFRVEKTKGFRKREMIKAYLENELEFKDKEAYFSRTEGHHHHHH,soluble
15,MGEHICFRRNERLATVNPYWRGNPMVRGRFFNRQHRFRPGMGSVLKWRLSPNPQRKEKKTVKWDPKVCYLRSLDAVVGDSLIWLGHNSFFLQLAGKRIMFDPVFGNIPFVKRQSEFPANPDIFTEIDYLLISHDHFDHLDKQSITRLLNNNPQMKLFCGLGTGELIKSWFPEMRVIEAGWYQQLEDEGLKITFLPAQHWSKRSVRDGGQRLWGAFMLQGNGVSLYYSGDTGYSTHFREIPDLFGAPDYALLGIGAYKPRWFMRPNHISPYESLTASEEMHAGITIPMHYGTFDLSDEPLHDPPKVFAAEAKKRKIRVEIPYLGEIVKLSKRK,not soluble
16,MLTSRALRIPRKPFVDLDYARHMPSAYVERTKRTVPRKVFGDRFGAPDIKMYYVHPDDYVPSHRRPWEDKQISSHLHRSDKYFSAQLSNQYFNLRRPKSERMADTEWTFFPGDLVQVMVGKDKGRQGLVLTTSRDSSDVIVDGLHTKLGEDMEGSEKLGVDKTLRWQEQPLSVSKKQVMLVDPNDEQPCEARWQLNGPGDEYIRVSTRSGYEIPIPSQAKVTYEYLQPENYIEVEGKDTPADAVLERTYMPKVASFEQEIMEEMGIKEERTPKPTFWY,not soluble
17,MRYVIAVKSPIYGKQGAFLAYQFAESLIKKEHEISQIFFFQDGVSNGNALVYPANDEVNLQKHWQMFSITYNVPLHLCVAASQRRGVVDNLTTPTTAHYNLAEGFTIAGLGEFIAASLNADRVITL,soluble
18,MTQANLSETLFKPRFKHPETSTLVRRFNHGAQPPVQSALDGKTIPHWYRMINRLMWIWRGIDPREILDVQARIVMSDAERTDDDLYDTVIGYRGGNWIYEWATQAMVWQQKACTEEDPQLSGRHWLHAATLYNIAAYPHLKGDDLAEQAQALSNRAYEEAAQRLPGTMRQMEFTVPGGAPITGFLHMPKGDGPFPTVLMCGGLDAMQTDYYSLYERYFAPRGIAMLTIDMPSVGFSSKWKLTQDSSLLHQHVLKALPNVPWVDHTRVAAFGFRFGANVAVRLAYLESPRLKAVACLGPVVHTLLSDFKCQQQVPEMYLDVLASRLGMHDASDEALRVELNRYSLKVQGLLGRRCPTPMLSGYWKNDPFSPEEDSRLITSSSADGKLLEIPFNPVYRNFDKGLQEITGWIEKRLC,not soluble
19,MITMLERVPTGIPGFDELCSGGLLRDRSYLVSGPSGSGKTIFAMQYLVNGIEKYNEPGVFVATEERPQHLREHFLTFGWDLEKYEDENMLAIVDATSTKIGLPSDERYIDVRPFDTRSLLDQIITIQDEIGARRAVVDSTTSIGFTISDPAKFRVELLKISTTMEILGLTSILTCEVVEGGGDKISRFGVENFVVEGTIVLYYTRIENTRVRSIEIFKMRGTNHSSKIHPFEITENGIVVYSKEEVFA,not soluble
20,MARLIVNALVSVPLAEIEIGFVRSGGAGGQNVNKLATAAHLRFDIAASSLPETCKTRLLDHRDRRMTAEGIIVIKAQRFGTQEKNREDALARLRGLILQALAQRRPRKPTRPTLAAKKKRLDEKTRHGEIKRLRRRIGDLEHHHHHH,not soluble
21,GPGSMLRNTDVRLFSTFALNPETSVAPHGPPRGLVNRYVSMGLPPWAAWCNKVNRYSLYRMSGVTQRSFLPKPPQEMDVIWLNERVRERVRTSRQVQNVYRQLKYPYVKTGIHYSDVLDHWVQVPMVEAAMFEVEKDGGFDNFILKRSGPELRSTYGERIRRHILVRQKEIQKNFVLQKQAQMLVESMEKEILPMEDGKKVEEVLEKYGIDKEQLLRDIARAAVAKKQQLASAVPQPSHVEVSTN,not soluble
22,MAGDPMTELEMHLLNALEQLQQDYTQRLKDWESPFTDLQHMFELTRQENGQLREQCDDLSQQVQRLAGQVDHLSRLFITNSRLEHHHHHH,not soluble
23,GSAPRVQEELCLVCGDRASGYHYNALTCEGCKGFFRRSVTKSAVYCCKFGRACEMDMYMRRKCQECRLKKCLAVGMRPECVVPENQCAMKRREKKAQKEKDKMTTSPSSQHGSPGIHRD,soluble
24,MEKVHAALTNPAYWDFIVKNLSPEPGEVHEFTEANGGAVATLFEVLPQELLPEAIRAMISQALKVKRVVTVGGLNGTSAPLSYTADVKGTPVDFKGEISMNGLGNTTTLSYANEITVNIPLMGAAIEPKVGQALADLFQNEGDLTSKWISKNL,not soluble
